Test results as given in patent publication US20100081612A1 (GENERAL HOSPITAL, published 2010).
Where no end group is shown, it is not given here. [ ]: non-standard residue; d: D form. Nle = CCCC[C@H](N)C(=O)O

T1: wild-type human PTHR (human, UniProt Q03431 27-593)
T1 construct: whole, on cells; also called PTHR-WT; intact PTHR
T1 sequence (looked up): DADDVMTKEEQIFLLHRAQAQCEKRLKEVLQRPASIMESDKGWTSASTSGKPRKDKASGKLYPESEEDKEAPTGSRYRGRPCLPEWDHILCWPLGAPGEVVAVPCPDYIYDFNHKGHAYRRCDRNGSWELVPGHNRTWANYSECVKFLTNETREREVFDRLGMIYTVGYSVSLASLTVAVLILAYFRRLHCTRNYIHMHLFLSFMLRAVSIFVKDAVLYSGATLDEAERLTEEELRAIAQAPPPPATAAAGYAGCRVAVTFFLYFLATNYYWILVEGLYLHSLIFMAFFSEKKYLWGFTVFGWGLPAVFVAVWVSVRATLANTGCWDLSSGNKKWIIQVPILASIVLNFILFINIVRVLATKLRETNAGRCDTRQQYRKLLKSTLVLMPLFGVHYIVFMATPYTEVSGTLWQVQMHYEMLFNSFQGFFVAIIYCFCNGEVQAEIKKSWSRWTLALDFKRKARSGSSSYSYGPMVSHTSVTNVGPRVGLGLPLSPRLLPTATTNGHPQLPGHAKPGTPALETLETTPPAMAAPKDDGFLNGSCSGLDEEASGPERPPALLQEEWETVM


What was measured:
[1] = target: T1, wild-type human PTHR; assay: competition binding, HKRK-B7 cells, 125I-PTH(1-34) tracer
[2] = target: T1, wild-type human PTHR; assay: as above; remark: listed apart in the source
Experimental: Receptor binding—Binding to the wild-type human PTHR in intact HKRK-B7 cells and ROS 17/2.8 cells was assessed using ¹²⁵I-PTH(1-34) as a tracer radioligand, as described (Shimizu, M., (2001) Endocrinology 142:3068-3074). In brief, the cells in 24-well plates (about 500,000 cells per well) were incubated in binding buffer containing radioligand (about 100,000 cpm per well) with or without unlabeled peptide ligand (3×10⁻⁹ to 1×10⁻⁵ M) for four hours at 15° C. The binding mixture was then removed by aspiration, the cells were rinsed three times with binding buffer, lysed in 1 M NaOH, and the entire lysate was counted for gamma-irradiation in a gamma counter. Binding to PTHR-delNt in COS-7 cell membranes was assessed in 96-well, vacuum filtration plates (Multiscreen-Durapore HV, […], Millipore Corp., Millford, Mass.) using ¹²⁵I-[Aib^{1,3},M]PTH(1-15)NH₂ as a tracer radioligand, as described (Dean, T., (2006) Mol Endocrinol 20:931-942). In brief, cell membranes (20 μg/well) were incubated in membrane binding buffer containing radioligand (30,000 cpm/well) with or without unlabeled peptide ligand (3×10⁻⁹ to 1×10⁻⁵ M) for 90 minutes at 21° C. The plates were then subject to rapid vacuum filtration, the filters were washed once with buffer, detached from the plate and counted for gamma-irradiation in a gamma counter. Non-specific binding was defined as the binding observed in the presence of 1×10⁻⁶ M PTH(1-31)NH₂ for HKRK-B7 and ROS 17/2.8 cells, and 1×10⁻⁶ M [Aib^{1,3},M]PTH(1-15)NH₂ for PTHR-delNt. Specifically bound radioactivity was calculated as a percentage of the radioactivity specifically bound in the absence of competing ligand.
Alanine-Scan of the PTH(17-31) domain—Each residue in the (17-31) region of PTH(1-31)NH₂ was individually replaced with alanine and the effects of the substitutions on binding to the intact human PTHR stably expressed in HKRK-B7 cells was assessed. Competition binding studies were performed using whole cells and ¹²⁵I-PTH(1-34) (¹²⁵I-[Nle^{8,21},Tyr³⁴]ratPTH(1-34)NH₂) as a tracer radioligand.

[3] = target: PTHR-delNt (human) (UniProt Q03431); assay: competition binding, COS-7 membranes, 125I-[Aib1,3,M]PTH(1-15) tracer

Binder | fold reduction in binding affinity vs PTH(1-31)NH2 [1] | IC50 [2] | IC50 [3] | fold difference of IC50 from PTH(1-31)NH2 [3] | fold enhancement in binding affinity vs PTH(1-31)NH2 [1] | fold reduction in binding affinity vs PTH(1-31)NH2 [3]
SVSEIQLMHNLGKHLNSMEXVEWLRKKLQDV (citrulline (Cit) at 20; C-terminal amide) [PTH(1-31)NH2 Arg^20→Cit] | ~200 fold | 11.9 µM | 10.6 µM | < 4 fold | – | –
SVSEIQLMHNLGKHLNSMEQVEWLRKKLQDV-NH2 [PTH(1-31)NH2 Arg^20→Gln] | – | > 10 µM | 10.3 µM | < 4 fold | – | –
SVSEIQLMHNLGKHLNSMEKVEWLRKKLQDV-NH2 [PTH(1-31)NH2 Arg^20→Lys] | – | > 10 µM | 7.11 µM | < 4 fold | – | –
SVSEIQLMHNLGKHLNSMEEVEWLRKKLQDV-NH2 [PTH(1-31)NH2 Arg^20→Glu] | – | > 10 µM | 14.7 µM | – | – | 4 fold

Results, then the binder that gave them:

fold reduction in binding affinity vs PTH(1-31)NH2 [1] | IC50 [2] | IC50 [3] | fold difference of IC50 from PTH(1-31)NH2 [3] | fold enhancement in binding affinity vs PTH(1-31)NH2 [1] | fold reduction in binding affinity vs PTH(1-31)NH2 [3] | Binder
~200 fold | 15.4 µM | 10.7 µM | < 4 fold | – | – | SVSEIQLMHNLGKHLNSME[Nle]VEWLRKKLQDV-NH2 (N-terminus assumed; SMILES CCCC[C@H](NC(=O)[C@H](CCC(=O)O)NC(=O)[C@H](CCSC)NC(=O)[C@H](CO)NC(=O)[C@H](CC(N)=O)NC(=O)[C@H](CC(C)C)NC(=O)[C@H](Cc1c[nH]cn1)NC(=O)[C@H](CCCCN)NC(=O)CNC(=O)[C@H](CC(C)C)NC(=O)[C@H](CC(N)=O)NC(=O)[C@H](Cc1c[nH]cn1)NC(=O)[C@H](CCSC)NC(=O)[C@H](CC(C)C)NC(=O)[C@H](CCC(N)=O)NC(=O)[C@@H](NC(=O)[C@H](CCC(=O)O)NC(=O)[C@H](CO)NC(=O)[C@@H](NC(=O)[C@@H](N)CO)C(C)C)[C@@H](C)CC)C(=O)N[C@H](C(=O)N[C@@H](CCC(=O)O)C(=O)N[C@@H](Cc1c[nH]c2ccccc12)C(=O)N[C@@H](CC(C)C)C(=O)N[C@@H](CCCNC(=N)N)C(=O)N[C@@H](CCCCN)C(=O)N[C@@H](CCCCN)C(=O)N[C@@H](CC(C)C)C(=O)N[C@@H](CCC(N)=O)C(=O)N[C@@H](CC(=O)O)C(=O)N[C@H](C(N)=O)C(C)C)C(C)C) [PTH(1-31)NH2 Arg^20→Nle]
– | 0.042 µM | 1.23 µM | – | ≤ 2 fold | – | SVSEIQLMHNLGKHLNSMRRVEWLRKKLQDV-NH2 [PTH(1-31)NH2 Glu^19→Arg]
– | 0.054 µM | 0.36 µM | – | – | – | SVSEIQLMHNLGKHLNSMRRVAWLRKKLQDV-NH2 [PTH(1-31)NH2 Glu^19,22→Arg,Ala]
– | 0.049 µM | 0.619 µM | – | – | – | SVSEIQLMHNLGKHLNSMARVAWLRKKLQDV-NH2 [PTH(1-31)NH2 Glu^19,22→Ala,Ala]
